From patent US20250361299A1 (published 2025)

T1: Human CD3 protein (human, UniProt P07766 23-126)
T1 chain: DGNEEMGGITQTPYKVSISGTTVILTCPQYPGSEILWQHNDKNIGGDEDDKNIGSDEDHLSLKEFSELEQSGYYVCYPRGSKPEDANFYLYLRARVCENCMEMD

B1: 1.4.3M-Pa proBiTE (bispecific antibody)
heavy: QDGNEEMGGIGGGSQDGNEEMGGGGGSGGGSGLSGRSDNHGGSEVQLVESGGGLVQPGGSLRLSCAASGFTFNTYAMNWVRQAPGKGLEWVARIRSKYNNYATYYADSVKGRFTISRDDSKNTLYLQMNSLRAEDTAVYYCARHGNFGSSYVSYFAYWGQGTTVTVSSGGGSSGGGGSGGGGSQVQLQESGPGLVKPSETLSLTCTVSGGSVSSGDYYWTWIRQSPGKGLEWIGHIYYSGNTNYNPSLKSRLTISIDTSKTQFSLKLSSVTAADTAIYYCVRDRVTGAFDIWGQGTMVTVSSASTKGPSVFPLAPSSKSTSGGTAALGCLVKDYFPEPVTVSWNSGALTSGVHTFPAVLQSSGLYSLSSVVTVPSSSLGTQTYICNVNHKPSNTKVDKKVEPKSCPPCPAPEAAGGPSVFLFPPKPKDTLMISRTPEVTCVVVDVSHEDPEVKFNWYVDGVEVHNAKTKPREEQYNSTYRVVSVLTVLHQDWLNGKEYKCKVSNKALPAPIEKTISKAKGQPREPQVYTLPPSRDELTKNQVSLLCLVKGFYPSDIAVEWESNGQPENNYKTTPPVLDSDGSFFLHSKLTVDKSRWQQGNVFSCSVMHEALHNHYTQKSLSLSPGK
light: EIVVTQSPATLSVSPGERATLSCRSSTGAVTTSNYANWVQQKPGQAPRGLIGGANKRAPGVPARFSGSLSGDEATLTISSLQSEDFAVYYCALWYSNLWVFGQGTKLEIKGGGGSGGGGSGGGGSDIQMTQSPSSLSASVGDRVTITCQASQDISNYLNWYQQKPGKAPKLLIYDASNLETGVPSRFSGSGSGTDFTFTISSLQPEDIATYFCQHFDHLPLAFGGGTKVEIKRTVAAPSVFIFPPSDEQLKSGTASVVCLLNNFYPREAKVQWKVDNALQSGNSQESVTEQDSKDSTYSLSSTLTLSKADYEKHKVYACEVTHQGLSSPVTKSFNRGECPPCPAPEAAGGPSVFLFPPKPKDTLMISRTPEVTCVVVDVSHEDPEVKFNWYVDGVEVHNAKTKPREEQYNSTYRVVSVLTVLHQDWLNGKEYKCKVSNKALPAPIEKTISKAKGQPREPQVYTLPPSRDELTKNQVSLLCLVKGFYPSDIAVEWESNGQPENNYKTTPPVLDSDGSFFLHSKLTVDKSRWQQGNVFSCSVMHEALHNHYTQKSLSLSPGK
B2: 1.6.1M-Pa proBiTE after uPA digestion (bispecific antibody)
heavy: SDNHGGGGSEVQLVESGGGLVQPGGSLRLSCAASGFTFNTYAMNWVRQAPGKGLEWVARIRSKYNNYATYYADSVKGRFTISRDDSKNTLYLQMNSLRAEDTAVYYCARHGNFGSSYVSYFAYWGQGTTVTVSSASTKGPSVFPLAPSSKSTSGGTAALGCLVKDYFPEPVTVSWNSGALTSGVHTFPAVLQSSGLYSLSSVVTVPSSSLGTQTYICNVNHKPSNTKVDKKVEPKSCPPCPAPEAAGAPSVFLFPPKPKDTLMISRTPEVTCVVVDVSHEDPEVKFNWYVDGVEVHNAKTKPREEQYNSTYRVVSVLTVLHQDWLNGKEYKCKVSNKALPAPIEKTISKAKGQPREPQVYTLPPSRDELTKNQVSLLCLVKGFYPSDIAVEWESNGQPENNYKTTPPVLDSDGSFFLHSKLTVDKSRWQQGNVFSCSVMHEALHNHYTQKSLSLSPGK
light: QVQLQESGPGLVKPSETLSLTCTVSGGSVSSGDYYWTWIRQSPGKGLEWIGHIYYSGNTNYNPSLKSRLTISIDTSKTQFSLKLSSVTAADTAIYYCVRDRVTGAFDIWGQGTMVTVSSGGGGSGGGGSGGGGSGGGGSDIQMTQSPSSLSASVGDRVTITCQASQDISNYLNWYQQKPGKAPKLLIYDASNLETGVPSRFSGSGSGTDFTFTISSLQPEDIATYFCQHFDHLPLAFGGGTKVEIKGGGGSGGGGSGGGGSGGGGSEIVVTQSPATLSVSPGERATLSCRSSTGAVTTSNYANWVQQKPGQAPRGLIGGANKRAPGVPARFSGSLSGDEATLTISSLQSEDFAVYYCALWYSNLWVFGQGTKLEIKRTVAAPSVFIFPPSDEQLKSGTASVVCLLNNFYPREAKVQWKVDNALQSGNSQESVTEQDSKDSTYSLSSTLTLSKADYEKHKVYACEVTHQGLSSPVTKSFNRGECPPCPAPEAAGAPSVFLFPPKPKDTLMISRTPEVTCVVVDVSHEDPEVKFNWYVDGVEVHNAKTKPREEQYNSTYRVVSVLTVLHQDWLNGKEYKCKVSNKALPAPIEKTISKAKGQPREPQVYTLPPSRDELTKNQVSLLCLVKGFYPSDIAVEWESNGQPENNYKTTPPVLDSDGSFFLHSKLTVDKSRWQQGNVFSCSVMHEALHNHYTQKSLSLSPGK

Tests used:
Recombinant human EGFR [1] = target: T2, Recombinant human EGFR (human, UniProt P00533 25-645); test: ELISA; without uPA
Human CD3 protein [2] = target: T1, Human CD3 protein; test: ELISA; without uPA
Recombinant human EGFR [3] = target: T2, Recombinant human EGFR; test: ELISA; with uPA
Human CD3 protein [4] = target: T1, Human CD3 protein; test: ELISA; with uPA

Row | EC50 (Recombinant human EGFR [1]) [µg/mL] | EC50 (Human CD3 protein [2]) [µg/mL] | EC50 (Recombinant human EGFR [3]) [µg/mL] | EC50 (Human CD3 protein [4]) [µg/mL] | Binder
1 | 0.244 | 6.57 |  |  | B1
2 |  |  | 0.0186 | 0.67 | B2
